Here are results for one substance from patent US20020115596.

Data set [1] has as its system Ac-PASChgQ-SL-acid.
In data set [2] the test system is PEG(2)-(4-trans-L-Hyp)ASChgQ-SL-DOX (3′).
The test system of data set [3] is PEG(2)-(4-trans-L-Hyp)ASChgQ-SThi-DOX (3′).
For data set [4], the system named is [N-Glutaryl-(4-trans-L-Hyp)]-Ala-Ser-Chg-Gln-Ser-Leu-Dox.
For data set [5], the system named is Malonyl-(4-trans-L-Hyp)ASChgQ-SL-DOX (3′).
Data set [6] relates to [N-Ac-(4-trans-L-Hyp)]-Ala-Ser-Chg-Gln-Ser-Leu-Dox.
Data set [7] deals with Glutaryl-(4-trans-L-Hyp)ASChgQ-SI-DOX (3′).
Data set [8] deals with Succinyl-(4-trans-L-Hyp)ASChgQ-SV-DOX (3′).
For data set [9], the system named is PEG(2)-(4-trans-L-Hyp)SSChgQ-SL-DOX (3′).
Data set [10] has as its system Succinyl-(4-trans-L-Hyp)ASChgQ-SAbu-DOX (3′).
Data set [11] has as its system Succinyl-(4-trans-L-Hyp)ASChgQ-SI-DOX (3′).
For data set [12], the system named is Ac-(4-trans-L-Hyp)ASChgQ-SThi-acid.
In data set [13] the test system is Ac-(4-trans-L-Hyp)ASChgQ-SLacid.
In data set [14] the test system is Succinyl-3,4-(diOH)PASChgQ-SL-DOX (3′).
Data set [15] has as its system PEG(4)-(4-trans-L-Hyp)-SSChgQ-SL-DOX (3′).
The test system of data set [16] is Ac-PSSChgQ-SV-acid.
In data set [17] the test system is Succinyl-(4-trans-L-Hyp)ASChgQ-SThi-DOX (3′).
The subject of data set [18] is Succinyl-(4-trans-L-Hyp)SSChgQ-SI-DOX (3′).
Data set [19] deals with (4-trans-L-Hyp)-Ala-Ser-Chg-Gln-Ser-Leu-Dox.
The test system of data set [20] is Ac-(4-trans-L-Hyp)ASChgQ-StBUAla-DOX (3′).
Data set [21] deals with Glutaryl-(4-trans-L-Hyp)SSChgQ-SL-DOX (3′).
Data set [22] has as its system Glutaryl-(4-trans-L-Hyp)ASChgQ-SV-DOX (3′).
The subject of data set [23] is Glutaryl-(4-trans-L-Hyp)SSChgQ-SI-DOX (3′).

Regarding free prostate specific antigen (PSA), the Time to 50% Substrate Cleavage by PSA in data set [1] was determined as 150 min; in data set [2], 20 min; in data set [6] it was 20 min; in data set [12], 20 min; in [13] it was 75 min; in [16], 120 min. This substance also yielded a Time to 50% Substrate Cleavage by PSA in data set [20] of 25 min. The “time required for 50% cleavage of the oligopeptide” value (from here on “time required for 50% cleavage”) in data set [3], in [4], in [5], in [7], in [8] and in [9] was 50% cleavage occurred in less than 2 hours for those conjugates in each case. Moreover, the “time required for 50% cleavage” value in data set [10], in data set [11], in data set [14], in data set [15], in data set [17] and in data set [18] was 50% cleavage occurred in less than 2 hours for those conjugates throughout. Further, the “time required for 50% cleavage” value in data set [19], in [21], in [22] and in [23] was 50% cleavage occurred in less than 2 hours for those conjugates in each case.
